# Numbering of substitutions follows the chain as printed.
# T1: α-fructosyl hexapeptide (α-fructosyl-valyl-histidyl-leucyl-threonyl-propyl-glutamic acid)
# T1 chain: VHLTPE
# T2: α-fructosyl valyl histidine
# T2 chain: VH
# B1: CFP-T7 (protein)
# chain: MTSNRADTRVIVVGGGGTIGSSTALHLVRSGYAPANITVLDTFEIPSAQSAGHDLNKIMGIRLRNKVDLQMSLEARQMWKEDELFQPFFHNTGRMDCEHTPEGIEDLKKQYQALHDAGAGLEKTHAWLDNEDEILSKMPLLQRDQIQGWKAIWSQDGGWLAAAKAINAIGQFLKERGVKFGFGGAGSFKQPLFDDEGTTCIGVETADGTKYYADKVVLAAGAWSPTLVDLEDQCCSKAWVYAHIQLTPEEAAEYKGVPVVYNGEFGFFFEPDEFGVIKVCDEFPGFSRFKEHQPYGAPSPKRISVPRSHAKHPTDTYPDASEVSIKKAIATFLPRFQDKELFNRALCWCTDTADAALLMCEHPKWKNFILATGDSGHSFKILPNVGKYVVELIEGRLPEEMAYQWRWRPGGDALKSRRAAPPKDLADMPGWKHDPKL
# B2: CFP-T7-62D (protein)
# chain: B1 chain with R62D
# B3: CFP-T7-H35 (protein)
# chain: B1 chain with R62D, L63H, E102K, D106K, Q110L, A113K, A355S
# B4: CFP-T7-H20 (protein)
# chain: B1 chain with R62D, D106K, Q110L, A113K
# B5: CFP-T7-H21 (protein)
# chain: B1 chain with R62D, D106K, Q110L, A113R
# How the values were obtained:
# [1] = biological target: T1, α-fructosyl hexapeptide …
# [2] = biological target: T2, α-fructosyl valyl histidine
Protein,"Specific activity (U/mg), 1 mM αF6P [1] [U/mg]",ΔA at 751 nm (hydrogen peroxide generated upon oxidation of αF6P) against αF6P concentration [1],"αF6P oxidation activity, relative to αFVH oxidation activity designated to be 100 (relative (αFVH = 100)) [1]","Specific activity (U/mg), 1 mM αFVH [2] [U/mg]","specific activity on αF6P, fold over PnFX (Present Invention 26/Comparative Example 3) [1]","specific activity on αF6P, fold over FAOAo2 (Present Invention 25/Comparative Example 2) [1]","αF6P oxidation activity ratio, relative to CFP-T7-H28 = 100 as the table shows (relative (CFP-T7-H28 = 100)) [1]","αF6P oxidation activity ratio (reference, designated to be 100) (relative (CFP-T7-H20 = 100)) [1]"
B1,0,no correlation was observed between ΔA and αF6P concentration,0,16.5,–,–,–,–
B2,0.018,–,–,1.62,"2 times (Present Invention 26/Comparative Example 3) to 1,940 times (Present Invention 25/Comparative Example 2) greater",–,–,–
B3,4.27,a favorable correlation was developed between ΔA and αF6P concentration in the range of αF6P concentration from 0.5 µM to 10 µM,–,1.9,–,"2 times (Present Invention 26/Comparative Example 3) to 1,940 times (Present Invention 25/Comparative Example 2) greater",206,–
B4,0.85,–,20.5,4.28,–,–,–,100
B5,0.795,–,20.8,4.05,–,–,–,–

# From patent US20150118700
